Test system: C. albicans 3153A
Assay: Passive transfer of mAbs or mAb cocktails i.p. before lethal i.v. challenge, mouse model of human disseminated candidiasis
Assay type: in vivo, Candida albicans
Conditions: for Protection against C. albicans / Protection against C. albicans (grade word): Table 6, single mAb 0.5 ml i.p. 4 h before i.v. 5×10^5 C. albicans 3153A, BALB/c mice; for Protection against Candida spp in mouse model: Against C. albicans / Protection against Candida spp in mouse model: Against C. albicans (grade word): Table 9; for Protection of adsorbed mAb / Protection / Protection (grade word): Table 15; for Protection of adsorbed mAb: mAb removed by absorption with Candida cells before transfer; for Protection / Protection (grade word): single universal peptide-specific mAb, C. albicans
Method in brief: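 Female BALB/c mice aged 6–8 weeks received 0.5 ml of a single mAb, or 1 ml of a two-mAb cocktail, i.p. 4 h before i.v. lethal C. albicans 3153A challenge, five mice per group over three experiments. Some groups were redosed every other day for two weeks. Survival followed to day 50.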

B1: 1D4H5: IgG1 mAb of hybridoma 1D4H5, specific for GPV-M1; VH SEQ ID NO: 64, VL SEQ ID NO: 66 (antibody, V domains shown)
VH: MYLGLNCVFIVFLLKGVQSEVKLEESGGGLVQPGGSMKLSCVASGFTFSNYWMNWVRQSPEKGLEWVAEIRLKSNNYATHYAESVKGRFTISSDDSKSSVYLQMNNLRAEDTGIYYCSTGNYWGQGTTLTVSS
VL: MDFQMQIISLLLISVTVIVSNGEIVLTQSPTTMAASPGEKITITCSASSTISSNYLHWYQQKPGFSPKLLIYRTSNLASGVPARFSGSGSGTSYSLTIGTMEAEDVATYYCQQGSTISRTFGSGTKLEIK
  Protection against C. albicans: (70-80%)
  Protection against C. albicans (grade word): High
  Protection against Candida spp in mouse model: Against C. albicans: (70-80%)
  Protection against Candida spp in mouse model: Against C. albicans (grade word): High
  Protection of adsorbed mAb: None
  Protection: (70-80%)
  Protection (grade word): High

B2: 10E7E2: IgG1 mAb of hybridoma 10E7E2, specific for GPV-P3; VH SEQ ID NO: 72, VL SEQ ID NO: 74 (antibody, V domains shown)
VH: QVQLKQSGPGLVQPSQSLSITCTVSGFSLTSYGVHWVRQSPGKGLEWLGVIWSGGTTDYNAAFISRLSISKDNSKSQVFFKMNSLQANDTAIYYCARGGHRGFAYWGQGTLVTVSA
VL: DIVMTQSHKFMSTSVGDRVSITCKASQDVGTAVAWYQQKPGQSPKLLIYWASTRHTGVPDRFTGSGSGTDFTLTISNVQSEDLADYFCQQYSSYPLTFGAGTKLELK
  Protection against C. albicans: (80-100%)
  Protection against C. albicans (grade word): High
  Protection against Candida spp in mouse model: Against C. albicans: (80-100%
  Protection against Candida spp in mouse model: Against C. albicans (grade word): High
  Protection of adsorbed mAb: None
  Protection: (80-100%)
  Protection (grade word): High

— US11707511B2, “Vaccine compositions and methods of using the same” (The Board of Supervisors of Louisiana State University and …, priority 2017, dated 2023)
